Target: barnase (ribonuclease from Bacillus amyloliquefaciens) (Bacillus amyloliquefaciens) (UniProt P00648)
Test: cell-based or functional assay

Chain of UniProt P00648 (P00648 48-157 limits assumed): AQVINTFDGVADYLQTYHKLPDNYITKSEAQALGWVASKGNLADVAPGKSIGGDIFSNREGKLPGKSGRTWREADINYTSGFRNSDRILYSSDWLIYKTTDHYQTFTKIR

barstar protein (product of the wild type and of the modified barstar gene of Bacillus amyloliquefaciens) (from UniProt P11540 2-90)
Percent of restored (male fertile) plants after transformation of barnase line bn 3.6 with construct A, A9-bs(fm)::TA29-bs(wt): 89.8% | Percent of restored (male fertile) plants after transformation of barnase line bn 3.6 with construct B, TA29-bs(wt): 65.6% | Percent of restored (male fertile) plants after transformation of barnase line bn 3.6 with construct C, A9-bs(wt): 12.7% | Percent of restored (male fertile) plants after transformation of barnase line bn 3.6 with construct D, A9-bs(fm): 10.8%
